The target in test [1] is myostatin (R&D Systems) (UniProt O14793). Kind of test: cell-based or functional assay.
The target of test [2] is T1, myostatin (R&D Systems) (UniProt O14793 267-375).
T1 sequence (looked up): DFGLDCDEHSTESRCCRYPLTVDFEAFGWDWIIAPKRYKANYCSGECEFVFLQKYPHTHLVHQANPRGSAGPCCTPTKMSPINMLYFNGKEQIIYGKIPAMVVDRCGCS
Kind of test: cell-based or functional assay.

In test [1], “Dual-arm WFIKKN2-G1Fc (from UniProt Q8TEU8 35-576) (Fc fusion)” showed an IC50 (nM), inhibition of myostatin signaling, pGL3(CAGA)12 reporter gene assay in A204 cells of more than 100 nM. Still for that read-out and setting: the figure for “Single-arm WFIKKN2-G1Fc (from UniProt P0DOX5 209-449) (Fc fusion)” is 2.9 nM.

B1: Single-chain WFIKKN2-His6 (other)
chain: LPPIRYSHAGICPNDMNPNLWVDAQSTCRRECETDQECETYEKCCPNVCGTKSCVAARYMDVKGKKGPVGMPKEATCDHFMCLQQGSECDIWDGQPVCKCKDRCEKEPSFTCASDGLTYYNRCYMDAEACSKGITLAVVTCRYHFTWPNTSPPPPETTMHPTTASPETPELDMAAPALLNNPVHQSVTMGETVSFLCDVVGRPRPEITWEKQLEDRENVVMRPNHVRGNVVVTNIAQLVIYNAQLQDAGIYTCTARNVAGVLRADFPLSVVRGHQAAATSESSPNGTAFPAAECLKPPDSEDCGEEQTRWHFDAQANNCLTFTFGHCHRNLNHFETYEACMLACMSGPLAACSLPALQGPCKAYAPRWAYNSQTGQCQSFVYGGCEGNGNNFESREACEESCPFPRGNQRCRACKPRQKLVTSFCRSDFVILGRVSELTEEPDSGRALVTVDEVLKDEKMGLKFLGQEPLEVTLLHVDWACPCPNVTVSEMPLIIMGEVDGGMAMLRPDSFVGASSARRVRKLREVMHKKTCDVLKEFLGLHHHHHHH
B1: in test [2], the “IC50 (nM), inhibition of myostatin signaling, pGL3(CAGA)12 reporter gene assay in A204 cells” value is 1.4 nM.

Values taken from patent US20180305427A1 (ACCELERON PHARMA, published 2018).
